Test results reported in patent US5595904.

Legend:
[1] = biological target: microtubule-associated protein 2 (MAP2)
[2] = biological target: extracellular signal-regulated kinase 1 (ERK1) (rat)

“extracellular signal-regulated kinase 1 (ERK1) (enzyme)” gave a specific activity with MAP2 [1] of 300 nmol/min/mg.

Substance recombinant ERK2 (enzyme) has a specific activity (phosphorylation of substrate) (MBP) of 1 nmol/min/mg and a specific activity (phosphorylation of substrate) [1] of 1 nmol/min/mg.

With “catalytic subunit of phosphatase 2a (enzyme)” the specific activity of ERK1 with MAP2 after dephosphorylation [2] was 4 nmol/min/mg.
